Experiments:
single-receptor tracking = target: the molecule itself; test: single-receptor tracking
[1] = target: the molecule itself; test: single-molecule photobleaching
recombinant RBP4 = recombinant RBP4 (UniProt P02753 19-201); test: cross-linking
SEC = target: the molecule itself; test: SEC
[2] = target: the molecule itself; test: single-molecule dual-color photobleaching

B1: quantum dot-labeled DR6, wild type (receptor, UniProt O75509 42-655, looked up)
chain: QPEQKASNLIGTYRHVDRATGQVLTCDKCPAGTYVSEHCTNTSLRVCSSCPVGTFTRHENGIEKCHDCSQPCPWPMIEKLPCAALTDRECTCPPGMFQSNATCAPHTVCPVGWGVRKKGTETEDVRCKQCARGTFSDVPSSVMKCKAYTDCLSQNLVVIKPGTKETDNVCGTLPSFSSSTSPSPGTAIFPRPEHMETHEVPSSTYVPKGMNSTESNSSASVRPKVLSSIQEGTVPDNTSSARGKEDVNKTLPNLQVVNHQQGPHHRHILKLLPSMEATGGEKSSTPIKGPKRGHPRQNLHKHFDINEHLPWMIVLFLLLVLVVIVVCSIRKSSRTLKKGPRQDPSAIVEKAGLKKSMTPTQNREKWIYYCNGHGIDILKLVAAQVGSQWKDIYQFLCNASEREVAAFSNGYTADHERAYAALQHWTIRGPEASLAQLISALRQHRRNDVVEKIRGLMEDTTQLETDKLALPMSPSPLSPSPIPSPNAKLENSALLTVEPSPQDKNKGFFVDESEPLLRCDSTSSGSSALSRNGSFITKEKKDTVLRQVRLDPCDLQPIFDDMLHFLNPEELRVIEEIPQAEDKLDRLFEIIGVKSQEASQTLLDSVYSHLPDLL
modifications: quantum dot label
- fold lower turnover into the monomeric state than DR6 ΔECD (single-receptor tracking): 2.1 fold
- stoichiometry N (single-receptor tracking): 2

B2: SNAP-DR6 (receptor, UniProt O75509 42-655, looked up)
chain: QPEQKASNLIGTYRHVDRATGQVLTCDKCPAGTYVSEHCTNTSLRVCSSCPVGTFTRHENGIEKCHDCSQPCPWPMIEKLPCAALTDRECTCPPGMFQSNATCAPHTVCPVGWGVRKKGTETEDVRCKQCARGTFSDVPSSVMKCKAYTDCLSQNLVVIKPGTKETDNVCGTLPSFSSSTSPSPGTAIFPRPEHMETHEVPSSTYVPKGMNSTESNSSASVRPKVLSSIQEGTVPDNTSSARGKEDVNKTLPNLQVVNHQQGPHHRHILKLLPSMEATGGEKSSTPIKGPKRGHPRQNLHKHFDINEHLPWMIVLFLLLVLVVIVVCSIRKSSRTLKKGPRQDPSAIVEKAGLKKSMTPTQNREKWIYYCNGHGIDILKLVAAQVGSQWKDIYQFLCNASEREVAAFSNGYTADHERAYAALQHWTIRGPEASLAQLISALRQHRRNDVVEKIRGLMEDTTQLETDKLALPMSPSPLSPSPIPSPNAKLENSALLTVEPSPQDKNKGFFVDESEPLLRCDSTSSGSSALSRNGSFITKEKKDTVLRQVRLDPCDLQPIFDDMLHFLNPEELRVIEEIPQAEDKLDRLFEIIGVKSQEASQTLLDSVYSHLPDLL
modifications: SNAP-Surface Alexa Fluor 488 label
- stoichiometry N [1]: 2

B3: recombinant DR6 ECD (domain or fragment, UniProt O75509 42-349, looked up)
chain: QPEQKASNLIGTYRHVDRATGQVLTCDKCPAGTYVSEHCTNTSLRVCSSCPVGTFTRHENGIEKCHDCSQPCPWPMIEKLPCAALTDRECTCPPGMFQSNATCAPHTVCPVGWGVRKKGTETEDVRCKQCARGTFSDVPSSVMKCKAYTDCLSQNLVVIKPGTKETDNVCGTLPSFSSSTSPSPGTAIFPRPEHMETHEVPSSTYVPKGMNSTESNSSASVRPKVLSSIQEGTVPDNTSSARGKEDVNKTLPNLQVVNHQQGPHHRHILKLLPSMEATGGEKSSTPIKGPKRGHPRQNLHKHFDINEH
- stoichiometry N (recombinant RBP4): 1
- binding result (SEC): binds

B4: DR6 ECD-Halo (domain or fragment, UniProt O75509 42-349, looked up)
chain: QPEQKASNLIGTYRHVDRATGQVLTCDKCPAGTYVSEHCTNTSLRVCSSCPVGTFTRHENGIEKCHDCSQPCPWPMIEKLPCAALTDRECTCPPGMFQSNATCAPHTVCPVGWGVRKKGTETEDVRCKQCARGTFSDVPSSVMKCKAYTDCLSQNLVVIKPGTKETDNVCGTLPSFSSSTSPSPGTAIFPRPEHMETHEVPSSTYVPKGMNSTESNSSASVRPKVLSSIQEGTVPDNTSSARGKEDVNKTLPNLQVVNHQQGPHHRHILKLLPSMEATGGEKSSTPIKGPKRGHPRQNLHKHFDINEH
modifications: Alexa Fluor 660 label
- stoichiometry N [2]: 2

Reference: publication doi:10.1101/2024.10.21.619555 (bioRxiv, 2024)
